# Patent publication US8022177B2, “Peptides and calcium regulation in mammalian cells” (The Board of Trustees of the University of Illinois, priority 2005, dated 2011)
# How the values were obtained:
# Cav3.1 [1] = target: T1, Cav3.1 (Homo sapiens, UniProt O43497); experiment: Co-immunoprecipitation of Flag-tagged γ subunits with Cav3.1; type: binding
# T1 construct: expressed in transfected cells; host or cells: HEK-293, stably transfected
# Description: Immunoprecipitation and Immunodetection. HEK-293 cells stably transfected with Cav3.1 were grown in T25 tissue culture flasks and transiently transfected when 70-90% confluent. Five μg of each plasmid expression vector was transfected per T25 flask using 15 μL Lipofectamine 2000 reagent (Invitrogen, Carlsbad, Calif.) as per the manufacturer's recommendations. Cells were processed for immunoprecipitation assay and immunoblot analysis 24 hr post-transfection. Cells were washed and scraped from flasks with ice cold PBS (without Ca^2+ or Mg^+) and centrifuged for 5 min at 500×g at 4° C. Cell pellets were resuspended in 1.0 mL lysis buffer (50 mM Tris HCl, 150 mM NaCl, 1 mM EDTA, 2% Triton X-100, and 1:100 Protease Inhibitor Cocktail Set III (EMD Biosciences, San Diego, Calif.)) and incubated with constant mixing for 1 hr at 4° C. Samples were cleared by centrifugation at 10,000×g for 2 min at 4° C. Equal amounts of cell lysate were added to a 75 μL bed volume of anti-FLAG M2 affinity gel (Sigma, St. Louis, Mo.) that was washed three times with lysis buffer. Samples were immunoprecipitated with constant mixing overnight at 4° C. Beads were washed three times with lysis buffer and incubated in sample buffer containing 1% SDS, 50 mM DTT, and 10% glycerol for 30 minutes at 25° C. […]
# Cav3.1 [2] = target: T1, Cav3.1; experiment: Whole-cell patch clamp of Cav3.1 dependent LVA calcium current in HEK-293/Cav3.1 cells transiently transfected with γ subunits (Example 1); type: cell-based; details: for Effect on current kinetics or voltage dependency: HEK-293/Cav3.1; for Peak current density, % of control value: HEK-293/Cav3.1, normalized to adCGI vector control, mean±S.E.M.; for Activation V 0.5 / Activation k / Deactivation tau @ −100 mV, Fast / Inactivation Tau @ −20 mV / Inactivation V 0.5 / Inactivation k / Time to peak @ −20 mV / V peak: Table 2
# Description: 2.3. Transfection. Untransfected HEK-293 cells, HEK-293 cell lines stably transfected with Cav3.1, and HL-1 cells were transiently transfected with vectors containing γ subunit, GFP, and modified CFP cDNAs using Lipofectamine 2000 reagent (InVitrogen) as per the manufacturer's recommendations. HEK-293 cells were grown to 70-80% confluence before transfection. HL-1 cells were grown to 50-75% confluence before transfection.
# 2.4. Electrophysiology. Whole-cell calcium currents were recorded using an Axopatch-1 D patch clamp system and Clampex 8.0 software. Pipettes were fabricated from borosilicate glass and had typical resistances of 2-4 MΩ. The pipette solution contained (in mM): 130 NaCl, 10 EGTA, 2 MgCl2, 1 CaCl2, 10 HEPES, 3 Tris-ATP, and either 0.3 Li2GTP or 0.3 Tris-GTP, adjusted to pH 7.4 with NaOH and 280 mOsm with sucrose. The bath solution contained (in mM): 137 NaCl (for HEK-293 experiments) or 120 TEACl (for HL-1 experiments), 1 KCl, 1 MgCl2, 0.33 NaH2PO4, 2 CaCl2 (for HEK-293 experiments) or 5 CaCl2 (for HL-1 experiments), 10 glucose (for HL-1 experiments only), 10 HEPES, and 30 μM TTX (for HEK-293 experiments only), adjusted to pH 7.4 with NaOH (for HEK-293 experiments) or TEAOH (for HL-1 experiments) and 280 mOsm with sucrose. NaCl was used as the major salt in the pipette solution order to eliminate any outward K+ currents.
# Recordings from HEK-293 cells were made 48-96 h posttransfection, at which time expression, as measured by GFP fluorescence, peaked. HL-1 cells were used for recording 24-36 h post-transfection. Current densities in HEK-293/Cav3.1 cell experiments were normalized to control for variation in current expression in the different frozen stocks of stable cell lines used. […] HL-1 experiments were performed using a single stock of cells. All HEK-293 data are from current records in which pipette and whole-cell capacitance were about 100% compensated and series resistance was compensated to >80%. Whole-cell capacitance and series resistance were not compensated for HL-1 recordings as currents were typically <100 pA. Series resistance values were typically <10 MX, and no records were used in which the voltage error (as defined by Ver=Imax×Ra) was greater than 5 mV. The holding potential of all protocols used for HEK-293 cells was −100 mV except for steady-state inactivation protocols where the holding potential was −120 mV. The holding potential for protocols used for HL-1 cells was −90 mV. Current-voltage relationships for all HEK-293 and HL-1 cells were measured using 50 ms test depolarizations. Peak current amplitudes for activation curves were determined by fitting tail currents, elicited by stepping membrane voltage from varying test potentials to −60 mV, with the Boltzman equation. Test potential steps for activation protocols were of varied durations, corresponding to the time to peak of the elicited current. Inactivation curves were determined by fitting peak amplitudes of currents, observed in a test pulse to −20 mV, following 500 ms steps to varying potentials, with the Boltzman equation. Time to peak was determined using the current-voltage protocol described above. Inactivation time constants were determined by fitting the decay phase of currents to an exponential equation and deactivation time constants were determined by fitting the decay phase of tail currents to an exponential equation. […] Currents were recorded at 40 kHz and on-line filtered at either 5 or 10 kHz. In some cases currents were off-line filtered at 1 kHz to further reduce noise. Current/voltage relationships and tail currents were recorded from HEK cells using an on-line P/−4 subtraction procedure. Calcium currents recorded from HL-1 cells were off-line leak subtracted. The average membrane capacitance of untransfected HEK-293 cells in pilot experiments was 12.5±1.4 pF (n=8). […]
# T1 sequence (O43497 whole entry): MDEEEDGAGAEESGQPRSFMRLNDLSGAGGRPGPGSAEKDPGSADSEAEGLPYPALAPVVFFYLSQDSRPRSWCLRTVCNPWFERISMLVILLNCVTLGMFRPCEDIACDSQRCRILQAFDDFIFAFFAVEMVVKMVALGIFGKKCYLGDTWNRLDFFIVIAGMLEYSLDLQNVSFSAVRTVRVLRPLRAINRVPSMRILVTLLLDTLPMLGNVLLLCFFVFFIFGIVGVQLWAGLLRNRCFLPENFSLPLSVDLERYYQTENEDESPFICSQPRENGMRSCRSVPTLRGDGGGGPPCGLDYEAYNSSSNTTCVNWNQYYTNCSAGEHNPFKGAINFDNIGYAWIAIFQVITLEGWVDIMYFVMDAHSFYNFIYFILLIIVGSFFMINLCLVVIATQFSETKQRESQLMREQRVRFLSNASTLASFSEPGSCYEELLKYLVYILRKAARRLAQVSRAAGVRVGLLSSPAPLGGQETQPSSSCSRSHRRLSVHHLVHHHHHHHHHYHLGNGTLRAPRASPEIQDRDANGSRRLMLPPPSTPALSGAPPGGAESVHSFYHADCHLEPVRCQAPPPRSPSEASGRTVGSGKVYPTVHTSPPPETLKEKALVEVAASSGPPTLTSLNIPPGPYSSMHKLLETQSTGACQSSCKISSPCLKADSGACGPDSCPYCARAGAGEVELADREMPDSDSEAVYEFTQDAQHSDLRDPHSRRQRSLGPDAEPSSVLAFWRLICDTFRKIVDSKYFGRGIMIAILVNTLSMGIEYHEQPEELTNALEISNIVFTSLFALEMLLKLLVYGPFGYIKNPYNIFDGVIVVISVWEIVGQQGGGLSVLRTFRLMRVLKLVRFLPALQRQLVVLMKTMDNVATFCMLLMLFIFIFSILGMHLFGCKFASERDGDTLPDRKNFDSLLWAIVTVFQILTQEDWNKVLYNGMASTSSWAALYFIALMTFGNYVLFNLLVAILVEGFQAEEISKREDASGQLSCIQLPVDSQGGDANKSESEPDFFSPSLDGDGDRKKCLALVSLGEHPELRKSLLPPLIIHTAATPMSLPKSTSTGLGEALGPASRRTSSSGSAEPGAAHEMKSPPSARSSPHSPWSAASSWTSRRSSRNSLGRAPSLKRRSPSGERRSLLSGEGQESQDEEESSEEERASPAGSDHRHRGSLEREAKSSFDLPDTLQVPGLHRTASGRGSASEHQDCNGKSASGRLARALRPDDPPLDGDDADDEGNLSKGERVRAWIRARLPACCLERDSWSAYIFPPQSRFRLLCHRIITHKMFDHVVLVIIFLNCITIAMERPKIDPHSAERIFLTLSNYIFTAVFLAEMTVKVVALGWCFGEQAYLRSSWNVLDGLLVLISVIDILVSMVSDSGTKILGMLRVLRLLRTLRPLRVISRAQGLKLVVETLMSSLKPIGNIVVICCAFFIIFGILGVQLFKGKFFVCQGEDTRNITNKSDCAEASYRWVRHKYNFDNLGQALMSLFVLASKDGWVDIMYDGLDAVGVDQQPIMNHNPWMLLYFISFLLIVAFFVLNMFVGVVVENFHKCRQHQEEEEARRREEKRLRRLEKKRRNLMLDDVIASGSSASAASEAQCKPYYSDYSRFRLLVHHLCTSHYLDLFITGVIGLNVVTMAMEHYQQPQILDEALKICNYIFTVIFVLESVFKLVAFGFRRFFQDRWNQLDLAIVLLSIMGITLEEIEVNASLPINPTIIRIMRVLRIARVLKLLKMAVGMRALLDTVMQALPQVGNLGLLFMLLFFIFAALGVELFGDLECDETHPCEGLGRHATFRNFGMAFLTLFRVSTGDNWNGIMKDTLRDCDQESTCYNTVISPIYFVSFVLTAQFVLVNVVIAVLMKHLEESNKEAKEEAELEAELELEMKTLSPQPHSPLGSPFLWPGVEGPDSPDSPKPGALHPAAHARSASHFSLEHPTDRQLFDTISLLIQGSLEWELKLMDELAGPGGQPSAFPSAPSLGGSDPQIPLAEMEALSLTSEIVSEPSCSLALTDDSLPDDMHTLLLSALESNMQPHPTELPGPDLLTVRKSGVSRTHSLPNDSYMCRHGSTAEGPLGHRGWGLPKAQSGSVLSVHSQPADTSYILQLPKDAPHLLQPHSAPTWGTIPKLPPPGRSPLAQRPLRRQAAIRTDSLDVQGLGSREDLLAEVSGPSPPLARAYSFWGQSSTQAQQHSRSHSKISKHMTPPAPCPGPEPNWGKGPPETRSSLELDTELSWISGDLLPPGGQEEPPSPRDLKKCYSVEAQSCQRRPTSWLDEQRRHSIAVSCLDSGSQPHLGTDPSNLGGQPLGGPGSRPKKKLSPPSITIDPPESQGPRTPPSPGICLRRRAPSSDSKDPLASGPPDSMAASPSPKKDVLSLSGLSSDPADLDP
molecule,measurement,setting,value
"γ6L: rat calcium channel γ6 subunit, long isoform (AF361343), SEQ ID NO:48 (protein, listed as Rattus norvegicus) MMWSNFFMQEEDRRRTAVGRRRAQEQQNLGLTPEREGKIKLGLLVAIVGATLAVLAVGTEFWVELNTYKTNGSAVCEAAHLGLWKVCIKRLWQADVPAGRETCGPAELPGEANCTYFKFFTTGENAHIFQRTTKKEVNLAAAVIAVLGLTAMALGCLCVIMVLSKGAEFLLRLGAVCFGLSGLLLFVSLEVFRHSVRALLQGVNPETPPAPRLAYEYSWSLGCGVGAGLILLLGGVCFLLLTLPSWPWRSLCPKRGGPTA",Co-immunoprecipitation with Cav3.1,Cav3.1 [1]; FIG. 36A,robust coimmunoprecipittion
same,Effect on current kinetics or voltage dependency,Cav3.1 [2],did not alter current kinetics or voltage dependency
same,"Peak current density, % of control value",Cav3.1 [2],51%±17%
same,Activation V 0.5,Cav3.1 [2],−36.3 ± 6.2 (n = 4) mV
same,Activation k,Cav3.1 [2],12.7 ± 1.5 (n = 4)
same,"Deactivation tau @ −100 mV, Fast",Cav3.1 [2],1.54 ± 0.48 (n = 4) ms
same,Inactivation Tau @ −20 mV,Cav3.1 [2],18.6 ± 1.1 (n = 6) ms
same,Inactivation V 0.5,Cav3.1 [2],−78.5 ± 2.6 (n = 6) mV
same,Inactivation k,Cav3.1 [2],5.4 ± 0.3 (n = 6)
same,Time to peak @ −20 mV,Cav3.1 [2],6.0 ± 0.8 (n = 5) ms
same,V peak,Cav3.1 [2],−31.1 ± 3.1 (n = 9) mV
same,Decrease in Cav3.1 current density,Cav3.1 [2]; co-expression with Cav3.1 in HEK-293 cells,49%
"γ4: rat calcium channel γ4 subunit (AF361341), SEQ ID NO:47 (protein, listed as Rattus norvegicus) MVRCDRGLQMLLTTAGAFAAFSLMAIAIGTDYWLYSSAHICNGTNLTMDDGPPPRRARGDLTHSGLWRVCCIEGIYKGHCFRINHFPEDNDYDHDSSEYLLRIVRASSVFPILSTILLLLGGLCIGAGRIYSRKNNIVLSAGILFVAAGLSNIIGIIVYISSNTGDPSDKRDEDKKNHYNYGWSFYFGALSFIVAETVGVLAVNIYIEKNKELRFKTKREFLKASSSSPYSRMPSYRYRRRRSRSSSRSTEASPSRDASPVGLKITGAIPMGELSMYTLSREPLKVTTAASYSPDQDAGFLQMHDFFQQDLKEGFHVSMLNRRTTPV",Interaction with Cav3.1 relative to γ6,"Cav3.1 [1]; Cav3.1 in anti-Flag immunoprecipitates, FIG. 36B",approximately 10 % of γ6
same,Effect on current kinetics or voltage dependency,Cav3.1 [2],did not alter current kinetics or voltage dependency
same,"Peak current density, % of control value",Cav3.1 [2],93%±7%
same,Effect on Cav3.1 current,Cav3.1 [2]; HEK-293 cells,no significant effect
same,Activation V 0.5,Cav3.1 [2],−37.3 ± 0.9 (n = 8) mV
same,Activation k,Cav3.1 [2],11.8 ± 0.5 (n = 8)
same,"Deactivation tau @ −100 mV, Fast",Cav3.1 [2],1.84 ± 0.28 (n = 8) ms
same,Inactivation Tau @ −20 mV,Cav3.1 [2],15.8 ± 0.7 (n = 7) ms
same,Inactivation V 0.5,Cav3.1 [2],−79.2 ± 1.5 (n = 7) mV
same,Inactivation k,Cav3.1 [2],6.1 ± 0.2 (n = 7)
same,Time to peak @ −20 mV,Cav3.1 [2],5.2 ± 0.5 (n = 9) ms
same,V peak,Cav3.1 [2],−30.6 ± 1.5 (n = 9) mV
same,"Peak current, % of control value",Cav3.1 [2]; doubling the amount of γ4 DNA transfected,128%±19%
